# The RNAGym collection of RNA variant scans (doi:10.7554/elife.80360)
# B1: HDV Ribozyme (parent)
# chain: GGCCGGCAUGGUCCCAGCCUCCUCGCUGGCGCCGGCUGGGCAACAUUCCGAGGGGACCGUCCCCUCGGUAAUGGCGAAUGGGACCCA
# Variants of: B1
# Experiment: self-cleavage, relative activity (ratio to wild type); higher = more cleavage; co-transcriptional
row,Variant,self-cleavage
1,GGCCGGCAUGGUCCCAGCCUCUUCGCUGGCGCCGGCUGGGCAACAUUCCGAGCGGACCGUCCCCUCGGUAAUGGCGAAUGGGACCCA [C22U G53C],0.63
2,GGCCGGCAUGGUCCCAGCCUCCACGCUGGCGCCGGCUGGGCAACAUUCCGAGGGGACCGUCCCCUCGGUAAUGUCGAAUGGGACCCA [U23A G74U],0.348
3,GGCCGGCAUGGUCCCAGCCUCCUCGCUGGAGCCGGCGGGGCAACAUUCCGAGGGGACCGUCCCCUCGGUAAUGGCGAAUGGGACCCA [C30A U37G],0
4,GGCCGGCAUGGUCCCAGCCUCCUCGCUGGCGCCGGCUGGGCAACAUUCCGAGGGGGCCGUCCCCUCGGUAAUGGCGAAUGUGACCCA [A56G G81U],0.332
5,GGCCGGCAUGGUCCCAGCCUCCUCGCUGGCGCCGACUGGGCAACAUUCCGAGGGGAACGUCCCCUCGGUAAUGGCGAAUGGGACCCA [G35A C57A],0.545
6,GGCCGGGAUGGUCCCAGCCUCCUCGCUGGCGCCGGCUGGGCAACAUUCCGAGGGGACCGUCCCCUCGGUAAUGGCGUAUGGGACCCA [C7G A77U],0.0875
7,GGCCGGCAUGGUCCCAGCCUCCUCGCUGGCGCCGGCUGGGCAACAUUCUGAGGGGACCGUCCCCUCGGUAAUGGCGAAUGGCACCCA [C49U G82C],0.264
8,GGCCGGCAUGGUCCCAUCCUCCUCGCUGGCGCAGGCUGGGCAACAUUCCGAGGGGACCGUCCCCUCGGUAAUGGCGAAUGGGACCCA [G17U C33A],0.143
9,GGCCGGCAUGGUUCCAGCCUCCUCGCUCGCGCCGGCUGGGCAACAUUCCGAGGGGACCGUCCCCUCGGUAAUGGCGAAUGGGACCCA [C13U G28C],0
10,GGCCGGCGUGGUCCCAGCCUCCUCGCUGGCGCCGGCUGGGCAACAUUCCGAGGGGACCGUACCCUCGGUAAUGGCGAAUGGGACCCA [A8G C61A],0.886
11,GGCCGGCAUGUUCCCAGCCUCCUCGCUGGCGCCGGCUGGGCAACAUUCCGAGGGGACCGUCCCCUCGGUAAUGGCGAAUGGGACCCG [G11U A87G],0.404
12,GGCCGGCAUGGUCCCAGCAUCUUCGCUGGCGCCGGCUGGGCAACAUUCCGAGGGGACCGUCCCCUCGGUAAUGGCGAAUGGGACCCA [C19A C22U],0.0203
13,GGCCGGCAUGGUCCCAGCCUCCUCGCUGGUGCCGGCUGGGCAACAUUCCGAGGGGACCGUCCCCUCGGUACUGGCGAAUGGGACCCA [C30U A71C],0.404
14,GGCCGGCAUGGUCCCAGCCUCCUCGCUGGCGCCGGCUGGGCAACAUUCCGAGGGGACCGUCCCCUCUGUAAUGGCGAAUGGAACCCA [G67U G82A],0.28
15,GGCCGGUAUGGUCCCAGCCUCCUCGCUGGCGCCGGCUGGGCAACAUUCCGAGGGGACCGUCCCCUCGGUAAUGGCGAAUGCGACCCA [C7U G81C],0.383
16,GGCCGGCAUGGUCCCAGCCUCCUCGCUGGCGCCCGCUGGGCAACAUUCCGAGGGGACCGUCCCCUCGGUAAUGGCGAUUGGGACCCA [G34C A78U],0.0475
17,GGCCGGCAUGGUCUCAGCCUCCUCGCUGGCGCCGGCUGGGCACCAUUCCGAGGGGACCGUCCCCUCGGUAAUGGCGAAUGGGACCCA [C14U A43C],0.364
18,GGCCAGCAUGGUCCCAGCCUCCGCGCUGGCGCCGGCUGGGCAACAUUCCGAGGGGACCGUCCCCUCGGUAAUGGCGAAUGGGACCCA [G5A U23G],0.0923
19,GGCCGGCAUGGUCCCAGCCUGCUGGCUGGCGCCGGCUGGGCAACAUUCCGAGGGGACCGUCCCCUCGGUAAUGGCGAAUGGGACCCA [C21G C24G],0.0504
20,GGCCGGCAUGGUCCCAGCCUCCUCGCUGGCGCCGGCUGGGCAACAUUCCGAGGGGACGGUCCCCUCGGUAAUGUCGAAUGGGACCCA [C58G G74U],0.511
21,GGCCGGCAUGGUCCCAGCCUCCUCGCUGGCGCCGGCUGGGCAACAUUCCGAGGGGACCGUCCCCUCGGUAAUGGCGAAAGGGACCUA [U79A C86U],1.02
22,GGCCGGCAUGGUCCCAGCCUCCUCGCAGGCGCCGGCUGGGUAACAUUCCGAGGGGACCGUCCCCUCGGUAAUGGCGAAUGGGACCCA [U27A C41U],1.07

row,Variant,self-cleavage
1,GGCCGGCAUGGUCCCAGCCUCCUCGCUGGCGACGGCUGGGCAACAUUCCGAGGGGACCGUCCCUUCGGUAAUGGCGAAUGGGACCCA [C32A C64U],0.175
2,GGCCGGCAUGGUCCCAGCCUCCUCGCUGGCGCCGGCAGGGCAACAUUCCGAGGGGACCGUCCCCUCGGUAAUGGCGAAUGGGUCCCA [U37A A83U],0.104
3,GGCAGGCAUGGUCCCAGCCUCCUCGCUGGCGCCGGCUGGGCAACAAUCCGAGGGGACCGUCCCCUCGGUAAUGGCGAAUGGGACCCA [C4A U46A],0.151
4,GGCCGGCAUGGUGCCAGCCUCAUCGCUGGCGCCGGCUGGGCAACAUUCCGAGGGGACCGUCCCCUCGGUAAUGGCGAAUGGGACCCA [C13G C22A],0.0361
5,GGCCGGCAUGGUCCCAGCCUCCUCGCUGGCGCCGGCUGGGCAACAUUCCGAGGGGACCGUCCCCUCGGUAUUGGCGAAGGGGACCCA [A71U U79G],0.831
6,GGCCGGCAUGGUCCCAGCCUCCUCGCUGGCGCCGGCUGGGCAACAUUCAGAGGGGACCGUCCCCUCGGUAAUGGCGAAUGGGUCCCA [C49A A83U],0.719
7,GGCCGGCAUGGUCCCAGCCCCCUCGCUGGAGCCGGCUGGGCAACAUUCCGAGGGGACCGUCCCCUCGGUAAUGGCGAAUGGGACCCA [U20C C30A],0.0923
8,GGCCGGCAUGGUCCCAGCCUCCUCGCUAGCGCCGCCUGGGCAACAUUCCGAGGGGACCGUCCCCUCGGUAAUGGCGAAUGGGACCCA [G28A G35C],0.153
9,GGCCGGCAUGGUCCCAGCCUCCACGCUGGCGCCGGCUGGGCAACAUUCCGAGGGGACCGUCCCCUCGGUAAUUGCGAAUGGGACCCA [U23A G73U],0.464
10,GGCCAGCAUGGUCCCAGCCUCAUCGCUGGCGCCGGCUGGGCAACAUUCCGAGGGGACCGUCCCCUCGGUAAUGGCGAAUGGGACCCA [G5A C22A],0.0426
11,GGCCGGCAUGGUCCCAGCCGCCUCGCUGGCGCGGGCUGGGCAACAUUCCGAGGGGACCGUCCCCUCGGUAAUGGCGAAUGGGACCCA [U20G C33G],0.185
12,GGCCGGCAUGGUCCCAGCCUCCUCGCUGGCGCCGGCUCGGCAAUAUUCCGAGGGGACCGUCCCCUCGGUAAUGGCGAAUGGGACCCA [G38C C44U],0.104
13,GGCCGGCAUGGUCCCAGCCUCCUCGCUGGCGCCGGCUGGGCAACAUUCCGAGGGGGCCGUCCCCUCGGUAAUGGCGAAUGGCACCCA [A56G G82C],0.193
14,GGCCGGCAUGGUCCGAGCCUCCUCGCUGGCGCCGGCUGGGCAACAUUCCGAGGUGACCGUCCCCUCGGUAAUGGCGAAUGGGACCCA [C15G G54U],0.59
15,GGCCGGCAUGGUCCCAGCCUCCUCGCUGGCGCCGGGUGGGCAACAUUCCUAGGGGACCGUCCCCUCGGUAAUGGCGAAUGGGACCCA [C36G G50U],0.101
16,GGCCGGCAUGGUCCCAGCCUCCUCGCUGGCGCCGGCUGGGCAACAUUCCGAGGGGACCGUCCCCUCGGUAAUGCCGACUGGGACCCA [G74C A78C],0.185
17,GGCCGGCACGGUCCCAGCCUCCUCGCUGGCGCCGGCUGGGCAACAUUCCGAGGGGCCCGUCCCCUCGGUAAUGGCGAAUGGGACCCA [U9C A56C],1.06
18,GGUCGGCAUGGUCCCAGGCUCCUCGCUGGCGCCGGCUGGGCAACAUUCCGAGGGGACCGUCCCCUCGGUAAUGGCGAAUGGGACCCA [C3U C18G],0.0779
19,GGCCGGCAUGGUCCCAGCCUCCUCGCUGGCGCCGGCUGGGCAACAUCCCGAGGGGACCGUCCCCUCGGCAAUGGCGAAUGGGACCCA [U47C U69C],1.08
20,GGCCGGCAUGGUCGCAGCCUCCUCGCUGGCGCCGGCUGGGCAACAUUCCGAGGGGACCGUCCCCUCGGUAAUGUCGAAUGGGACCCA [C14G G74U],0.128
21,GGCCGGCUUGGUCCCAGCCUCCUCGCUGGCGCCGGCUGGGCAACAUUCCGAGGGGACCGUCGCCUCGGUAAUGGCGAAUGGGACCCA [A8U C62G],0.287
22,GGCCGGCAUGGUCCCAGCCCCCUCGCUGGCGCCGGCUGGGCAACAUUCCGAGGGGACCGUCCCCUCGGUAAUGGCGUAUGGGACCCA [U20C A77U],0.0898

row,Variant,self-cleavage
1,GGCCGGCAUGUUCCCAGCCUCCUCGCUGGCGCCGGCUGGGCAACAUUCCGAGGGGACCGUCCCCUCGGUAAUCGCGAAUGGGACCCA [G11U G73C],0.126
2,GGCCGGCAUGGUCCCUGCCUCGUCGCUGGCGCCGGCUGGGCAACAUUCCGAGGGGACCGUCCCCUCGGUAAUGGCGAAUGGGACCCA [A16U C22G],0.161
3,GGCCGGCAUGGUCCCAGCCUCCUCGCUGGCGCCGGCUGGGCAACAUUCCGAGGGGCCCGUCCCCUCGGUAAUGCCGAAUGGGACCCA [A56C G74C],0.312
4,GGCCGGCAUGGUGCCAGCCUCCUCGGUGGCGCCGGCUGGGCAACAUUCCGAGGGGACCGUCCCCUCGGUAAUGGCGAAUGGGACCCA [C13G C26G],0.0978
5,GGCCGGCAUGGUCCCAGCCUCCUCGCUGGCGCCGGCUGGUCAACAUUCCGAGGGGACCGUCCCCUCGGUGAUGGCGAAUGGGACCCA [G40U A70G],0.528
6,GGCCGGGAUGGUCCCAGCCUCCUCGCUGGCCCCGGCUGGGCAACAUUCCGAGGGGACCGUCCCCUCGGUAAUGGCGAAUGGGACCCA [C7G G31C],0.95
7,GGCCGGCAUGGUCCCAGCCUCCUCGCUGGCGCCGUCUGGGCAACAUUCCGAGGGGACCGUCCCCUCCGUAAUGGCGAAUGGGACCCA [G35U G67C],0.41
8,GGCCGGAAUGGUCCCAGUCUCCUCGCUGGCGCCGGCUGGGCAACAUUCCGAGGGGACCGUCCCCUCGGUAAUGGCGAAUGGGACCCA [C7A C18U],0.229
9,GGCCGGCAUGGUCCCAGCCUCCUCGCUGGCGCCGGCUGGGCAACAUUCCGAGGGGACCGUCCCCUCGGUAAUGGCGAAGGGGACCAA [U79G C86A],0.675
10,GGCCGGCAUGGUCCCAGCCUCCUCGCUGGCGCGGGCUGGGCAACAUUCCGAGGGGACCGUCCCCCCGGUAAUGGCGAAUGGGACCCA [C33G U65C],0.115
11,GGCCGGCAUGGUCCCAGCCUCCUCGCUGGCGCCGGCUGGGAAACAUUCCGAGGGGACCGUCCCCUCGGUAAUGGCAAAUGGGACCCA [C41A G76A],0.845
12,GGCCGGCAUGGUCACAGCCUCCUCGCUGGCGCCGGCUGGGCAACAUUCCGAGGGGACCGUCCCCACGGUAAUGGCGAAUGGGACCCA [C14A U65A],0.811
13,GGCCGGCAGGGUCCCAGCCUCCUCGCUGGCGCCGGCUGGGCAACAUUCCGAGGGGACCGUCCCCUCGGGAAUGGCGAAUGGGACCCA [U9G U69G],0.767
14,GGCCGGCAUUGUCCCAGCCUCCUCGCUGGCUCCGGCUGGGCAACAUUCCGAGGGGACCGUCCCCUCGGUAAUGGCGAAUGGGACCCA [G10U G31U],0.181
15,GGCCGGCAUGGUCCCAGCCUCCUCGCUGGCGCCGGCUGGGCAACAUCCCGAGGGGACCGUCCCCUCGCUAAUGGCGAAUGGGACCCA [U47C G68C],0.44
16,GGCCGGCAUGGUCCGAGCCUCAUCGCUGGCGCCGGCUGGGCAACAUUCCGAGGGGACCGUCCCCUCGGUAAUGGCGAAUGGGACCCA [C15G C22A],0.0504
17,GGCCUGCAUGGUCCCAGCCUCCUCGCUGGCGCCGGCUGGGCAACAUUCCGAGGGGACCGUCCCCACGGUAAUGGCGAAUGGGACCCA [G5U U65A],0.453
18,GGCCGCCAUGGUCCCAGUCUCCUCGCUGGCGCCGGCUGGGCAACAUUCCGAGGGGACCGUCCCCUCGGUAAUGGCGAAUGGGACCCA [G6C C18U],0.0923
19,GGCCGGCAUGGUCCCAGCCUCCUCGCUGGCGACGGCUGGGCAAAAUUCCGAGGGGACCGUCCCCUCGGUAAUGGCGAAUGGGACCCA [C32A C44A],0.364
20,GGCCGGCAUGGUCCCAACCUCCUCGCUGGCGCCGGCUGGGCAACAGUCCGAGGGGACCGUCCCCUCGGUAAUGGCGAAUGGGACCCA [G17A U46G],0.229
